Tests used:
[1] = biological target: TBP6.7 Q48T Q48T (in TBP6.7 Y31H/Q36R) (Homo sapiens) (UniProt P09012); test: ITC; settings: 20 C
[2] = biological target: TBP6.7 T50A T50A (in TBP6.7 Y31H/Q36R) (Homo sapiens) (UniProt P09012); test: ITC; settings: 20 C; error printed as XX
[3] = biological target: TBP6.7 R47A R47A (in TBP6.7 Y31H/Q36R) (Homo sapiens) (UniProt P09012); test: ITC; settings: 20 C; estimate, low c-value
[4] = biological target: TBP6.7 R47K R47K (in TBP6.7 Y31H/Q36R) (Homo sapiens) (UniProt P09012); test: ITC; settings: 20 C
[5] = biological target: TBP6.7 R49A R49A (in TBP6.7 Y31H/Q36R) (Homo sapiens) (UniProt P09012); test: ITC; settings: 20 C
[6] = test system: TBP6.7 (U1A-derived TAR binding protein, crystallization variant) (Homo sapiens); test: ITC
[7] = biological target: TBP6.7 P46A P46A (in TBP6.7 Y31H/Q36R) (Homo sapiens) (UniProt P09012); test: ITC; settings: 20 C
[8] = biological target: TBP6.7 R52A R52A (in TBP6.7 Y31H/Q36R) (Homo sapiens) (UniProt P09012); test: ITC; settings: 20 C
[9] = test system: TBP6.7 deltaC truncated after residue 90 (in TBP6.7 Y31H/Q36R) (Homo sapiens); test: ITC; settings: 20 C
[10] = biological target: TBP6.7 Q54A Q54A (in TBP6.7 Y31H/Q36R) (Homo sapiens) (UniProt P09012); test: ITC; settings: 20 C
[11] = biological target: TBP6.7 P51A P51A (in TBP6.7 Y31H/Q36R) (Homo sapiens) (UniProt P09012); test: ITC; settings: 20 C
[12] = biological target: TBP6.7 Q48A Q48A (in TBP6.7 Y31H/Q36R) (Homo sapiens) (UniProt P09012); test: ITC; settings: 20 C
[13] = test system: Tat peptide (basic domain) (Human immunodeficiency virus 1); settings: method of this Kd not stated
[14] = test system: stapled (cyclic) beta2-beta3 loop peptide L44C, F56C (synthetic); test: flow; settings: 25 C, E. coli surface display, apparent Kd

Chain of TBP6.7 R47A R47A (in TBP6.7 Y31H/Q36R) (Homo sapiens) (P09012 1-98 Y31H/Q36R/R47A): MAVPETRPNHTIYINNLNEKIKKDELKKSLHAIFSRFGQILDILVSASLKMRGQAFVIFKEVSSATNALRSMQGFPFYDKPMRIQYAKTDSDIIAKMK
Chain of TBP6.7 Q54A Q54A (in TBP6.7 Y31H/Q36R) (Homo sapiens) (P09012 1-98 Y31H/Q36R/Q54A): as the sequence (P09012 1-98 Y31H/Q36R/R47A) above, with A47R, Q54A counted along it
Chain of TBP6.7 Q48A Q48A (in TBP6.7 Y31H/Q36R) (Homo sapiens) (P09012 other isoform, or with tags, fused parts or gaps Q48A Q48A Y31H Q36R): as the sequence (P09012 1-98 Y31H/Q36R/R47A) above, with H31Y, R36Q, A47R, Y78H counted along it
Chain of TBP6.7 R47K R47K (in TBP6.7 Y31H/Q36R) (Homo sapiens) (P09012 1-98 Y31H/Q36R/R47K): as the sequence (P09012 1-98 Y31H/Q36R/R47A) above, with A47K counted along it
Chain of TBP6.7 P46A P46A (in TBP6.7 Y31H/Q36R) (Homo sapiens) (P09012 whole entry, stated change not applied): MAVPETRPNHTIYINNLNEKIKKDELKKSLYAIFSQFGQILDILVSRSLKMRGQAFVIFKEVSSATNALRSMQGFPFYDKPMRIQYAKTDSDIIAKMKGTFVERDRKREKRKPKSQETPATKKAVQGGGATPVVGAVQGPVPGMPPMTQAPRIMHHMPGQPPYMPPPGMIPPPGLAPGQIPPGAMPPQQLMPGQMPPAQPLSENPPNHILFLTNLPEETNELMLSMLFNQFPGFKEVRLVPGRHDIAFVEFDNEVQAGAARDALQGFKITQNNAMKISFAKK
Chain of TBP6.7 R49A R49A (in TBP6.7 Y31H/Q36R) (Homo sapiens) (P09012 whole entry, stated change not applied): as above
Chain of TBP6.7 Q48T Q48T (in TBP6.7 Y31H/Q36R) (Homo sapiens) (P09012 whole entry, stated change not applied): as above
Chain of TBP6.7 T50A T50A (in TBP6.7 Y31H/Q36R) (Homo sapiens) (P09012 whole entry, stated change not applied): as above
Chain of TBP6.7 P51A P51A (in TBP6.7 Y31H/Q36R) (Homo sapiens) (P09012 whole entry, stated change not applied): as above
Chain of TBP6.7 R52A R52A (in TBP6.7 Y31H/Q36R) (Homo sapiens) (P09012 1-98 Y31H/Q36R/R52A): as the sequence (P09012 1-98 Y31H/Q36R/R47A) above, with A47R, R52A counted along it

With HIV-1 TAR RNA the Kd [1] was 3.6 nM, the Kd [2] was 11.4 nM and the Kd [3] was 1520 nM. The Kd [4] was 156 nM, the Kd [5] was 710 nM and the Kd ([6]; 20 C, n=0.99) was 2.5 nM. The Kd ([6]; 37 C, 0.05 M NaCl, 0.05 M KCl, 2 mM MgCl2, 2 mM beta-mercaptoethanol, pH 7.5, estimate of about 0.7 nM at 20 C in same example) was 18.5 nM, the Kd [7] was 11.7 nM and the Kd [8] was 290 nM. For the same substance, the Kd [9] was 12 nM, the Kd [10] was 7.2 nM and the Kd [11] was 10.8 nM. The Kd [12] was 5.5 nM, the Kd [13] was 260 nM and the Kd [14] was 80 nM.
